From the supplement of paper PMC7125110 come the findings set out here.

One may read the kcat as the maximal rate divided by the concentration of active sites. The KM is the concentration of substrate that gives half-maximal velocity.

± gives the standard error. For some assays here: This sample holds only a part of the variants without activity.

The labels stand for the following.
B1: glmS ribozyme (parent)
chain: AUAAAAGCGCCAGAACUACAGAAAUGUAGUUGACGAGGAGGAGGUUUAUCGAAUUUUCGGCGGAUGCCUCCAAA

Details in all cases: with glucosamine-6-phosphate
In data set [1] the parent is B1. Briefly: kcat; higher = faster cleavage; RNA array. The procedure, abridged:
(§1)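 The measurements used barcoded ribozyme variants on sequenced MiSeq chips, transcribed in situ by E. coli RNA polymerase and tracked at 37 °C with a hybridised Cy3 probe. Glucosamine-6-phosphate, 40 μM to 10 mM in HEPES/KCl/Mg(OAc)2 buffer, was flowed in while tiles were imaged over ~14 h. Baseline-normalised signals, also normalised to non-cleaving reference variants, gave per-tile medians that were fit to one- or two-exponential decays for kobs. kcat and KM resulted from weighted Michaelis–Menten fits across concentrations.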

Variants of B1 are the subject of data set [2]. The data set is described as follows: KM; higher = weaker cofactor use; RNA array. In outline:
as §1

The variants in data set [3] derive from B1. Briefly: self-cleavage kobs at 160 uM GlcN6P; higher = faster cleavage; RNA array. The procedure, abridged:
as §1

The variants in data set [4] derive from B1. Briefly: self-cleavage kobs at 640 uM GlcN6P; higher = faster cleavage; RNA array. The procedure, abridged:
as §1

In data set [5] the parent is B1. The data set is described as follows: self-cleavage kobs at 2500 uM GlcN6P; higher = faster cleavage; RNA array. In outline: as §1
Data set [6] covers variants of B1. Briefly: self-cleavage kobs at 10000 uM GlcN6P; higher = faster cleavage; RNA array. The procedure, abridged: as §1
Variants of B1 are the subject of data set [7]. The data set is described as follows: self-cleavage kobs at 40 uM GlcN6P; higher = faster cleavage; RNA array. The procedure, abridged:
as §1

Take G37A U55C: in the data set with glucosamine-6-phosphate [1], the turnover number (kcat) came out at 0.000802 ± 5.9e-05 s⁻¹. For the same variant, the KM with glucosamine-6-phosphate [2] turned out to be 2180 ± 260 µM. Besides, the “self-cleavage kobs at 160 uM GlcN6P” value with glucosamine-6-phosphate [3] worked out at 5.1e-05 ± 1.1e-05 s⁻¹. Further, the “self-cleavage kobs at 640 uM GlcN6P” value with glucosamine-6-phosphate [4] was determined as 0.000189 ± 2e-05 s⁻¹. In addition, the “self-cleavage kobs at 2500 uM GlcN6P” value in the data set with glucosamine-6-phosphate [5] stood at 0.000404 ± 5.6e-05 s⁻¹. Besides, in the data set with glucosamine-6-phosphate [6], the “self-cleavage kobs at 10000 uM GlcN6P” value stood at 0.000676 ± 8.7e-05 s⁻¹.
For the variant C11A C71A, the kcat with glucosamine-6-phosphate [1] was 6.72e-05 ± 2.1e-05 s⁻¹. Moreover, the “self-cleavage kobs at 2500 uM GlcN6P” value with glucosamine-6-phosphate [5] was 2.11e-05 ± 9e-06 s⁻¹. Also, the “self-cleavage kobs at 10000 uM GlcN6P” value with glucosamine-6-phosphate [6] came to 4.87e-05 ± 6.4e-06 s⁻¹.
On to U30G C67G, for which, in the data set with glucosamine-6-phosphate [1], the kcat is 0.000155 ± 9.6e-06 s⁻¹. Also, the KM with glucosamine-6-phosphate [2] came out at 2050 ± 310 µM. In addition, the “self-cleavage kobs at 640 uM GlcN6P” value with glucosamine-6-phosphate [4] turned out to be 3.99e-05 ± 9.3e-06 s⁻¹. Further, the “self-cleavage kobs at 2500 uM GlcN6P” value in the data set with glucosamine-6-phosphate [5] was 8.11e-05 ± 1e-05 s⁻¹. Also, the “self-cleavage kobs at 10000 uM GlcN6P” value with glucosamine-6-phosphate [6] came to 0.000132 ± 1.6e-05 s⁻¹.
As for A14G U65A, the kcat in the data set with glucosamine-6-phosphate [1] turned out to be 0.0124 ± 0.0022 s⁻¹. Also, the KM in the data set with glucosamine-6-phosphate [2] was determined as 3350 ± 800 µM. For the same variant, the “self-cleavage kobs at 40 uM GlcN6P” value with glucosamine-6-phosphate [7] turned out to be 0.000169 ± 1.9e-05 s⁻¹. Also, the “self-cleavage kobs at 160 uM GlcN6P” value with glucosamine-6-phosphate [3] stood at 0.000424 ± 8.6e-05 s⁻¹. For the same variant, the “self-cleavage kobs at 640 uM GlcN6P” value in the data set with glucosamine-6-phosphate [4] was 0.00213 ± 0.00035 s⁻¹. Also, the “self-cleavage kobs at 2500 uM GlcN6P” value with glucosamine-6-phosphate [5] was 0.00492 ± 0.00087 s⁻¹. Further, the “self-cleavage kobs at 10000 uM GlcN6P” value with glucosamine-6-phosphate [6] was found to be 0.0094 ± 0.00098 s⁻¹.
Consider G29U G38U U69G, for which the kcat in the data set with glucosamine-6-phosphate [1] amounted to 7.45e-05 ± 3.4e-05 s⁻¹. The “self-cleavage kobs at 160 uM GlcN6P” value in the data set with glucosamine-6-phosphate [3] was 9.11e-05 ± 1.8e-05 s⁻¹. Further, the “self-cleavage kobs at 640 uM GlcN6P” value with glucosamine-6-phosphate [4] came out at 0.00014 ± 6.1e-05 s⁻¹. Besides, the “self-cleavage kobs at 2500 uM GlcN6P” value in the data set with glucosamine-6-phosphate [5] amounted to 0.000102 ± 4.6e-05 s⁻¹.
Consider A12G U65G C67A, for which the kcat in the data set with glucosamine-6-phosphate [1] is 0.000136 ± 1.4e-05 s⁻¹. Moreover, in the data set with glucosamine-6-phosphate [2], the KM amounted to 3010 ± 610 µM. In addition, in the data set with glucosamine-6-phosphate [5], the “self-cleavage kobs at 2500 uM GlcN6P” value was determined as 6.02e-05 ± 1.2e-05 s⁻¹. Also, the “self-cleavage kobs at 10000 uM GlcN6P” value with glucosamine-6-phosphate [6] was found to be 0.000108 ± 3.2e-05 s⁻¹.
On the same counts, the results for G29A G66C are 6.73e-05 ± 1.1e-05 s⁻¹, 1940 ± 930 µM, 4.16e-05 ± 1.1e-05 s⁻¹ and 5.41e-05 ± 1.4e-05 s⁻¹.
For the variant U31G C71G, the kcat with glucosamine-6-phosphate [1] was 0.000461 ± 0.0001 s⁻¹. The KM with glucosamine-6-phosphate [2] came out at 408 ± 180 µM. In the data set with glucosamine-6-phosphate [7], the “self-cleavage kobs at 40 uM GlcN6P” value worked out at 5.48e-05 ± 1.3e-05 s⁻¹. Moreover, the “self-cleavage kobs at 160 uM GlcN6P” value in the data set with glucosamine-6-phosphate [3] was 0.000111 ± 2.7e-05 s⁻¹. Moreover, in the data set with glucosamine-6-phosphate [5], the “self-cleavage kobs at 2500 uM GlcN6P” value was determined as 0.000329 ± 7.1e-05 s⁻¹. Also, the “self-cleavage kobs at 10000 uM GlcN6P” value in the data set with glucosamine-6-phosphate [6] turned out to be 0.000555 ± 9.7e-05 s⁻¹.
With U30G A48U, the kcat in the data set with glucosamine-6-phosphate [1] is 7.56e-05 ± 6e-06 s⁻¹. The KM with glucosamine-6-phosphate [2] amounted to 1040 ± 340 µM. The “self-cleavage kobs at 40 uM GlcN6P” value with glucosamine-6-phosphate [7] is < 1e-05 s⁻¹. Besides, the “self-cleavage kobs at 160 uM GlcN6P” value with glucosamine-6-phosphate [3] is < 1e-05 s⁻¹. The “self-cleavage kobs at 2500 uM GlcN6P” value in the data set with glucosamine-6-phosphate [5] is 5.84e-05 ± 1.2e-05 s⁻¹. Moreover, in the data set with glucosamine-6-phosphate [6], the “self-cleavage kobs at 10000 uM GlcN6P” value came to 6.65e-05 ± 1.1e-05 s⁻¹.
In the case of A14U C67G, the kcat with glucosamine-6-phosphate [1] was determined as 0.000352 ± 8e-06 s⁻¹. Moreover, the Michaelis-Menten constant (KM) with glucosamine-6-phosphate [2] turned out to be 1670 ± 68 µM. Moreover, in the data set with glucosamine-6-phosphate [3], the “self-cleavage kobs at 160 uM GlcN6P” value worked out at 3.01e-05 ± 6.5e-06 s⁻¹. The “self-cleavage kobs at 640 uM GlcN6P” value in the data set with glucosamine-6-phosphate [4] was 9.71e-05 ± 6.9e-06 s⁻¹. The “self-cleavage kobs at 2500 uM GlcN6P” value in the data set with glucosamine-6-phosphate [5] is 0.000215 ± 1.7e-05 s⁻¹. The “self-cleavage kobs at 10000 uM GlcN6P” value with glucosamine-6-phosphate [6] is 0.000296 ± 2.9e-05 s⁻¹.
For the variant A52U A64G C68U, the kcat with glucosamine-6-phosphate [1] came out at 6.78e-05 ± 4.7e-06 s⁻¹. Moreover, in the data set with glucosamine-6-phosphate [2], the KM turned out to be 741 ± 230 µM. The “self-cleavage kobs at 2500 uM GlcN6P” value in the data set with glucosamine-6-phosphate [5] was found to be 5.62e-05 ± 2.2e-05 s⁻¹. For the same variant, in the data set with glucosamine-6-phosphate [6], the “self-cleavage kobs at 10000 uM GlcN6P” value is 6.09e-05 ± 2.2e-05 s⁻¹.
For the variant C19A A42G, the kcat with glucosamine-6-phosphate [1] was 0.00828 ± 0.0016 s⁻¹. In the data set with glucosamine-6-phosphate [2], the KM amounted to 164 ± 59 µM. The “self-cleavage kobs at 40 uM GlcN6P” value with glucosamine-6-phosphate [7] is 0.00166 ± 0.00056 s⁻¹. Further, the “self-cleavage kobs at 640 uM GlcN6P” value with glucosamine-6-phosphate [4] stood at 0.00596 ± 0.0022 s⁻¹.
For G32C A42G, the kcat in the data set with glucosamine-6-phosphate [1] was found to be 0.000211 ± 3.7e-05 s⁻¹. Further, the “self-cleavage kobs at 2500 uM GlcN6P” value in the data set with glucosamine-6-phosphate [5] is 3.92e-05 ± 9.5e-06 s⁻¹. In addition, the “self-cleavage kobs at 10000 uM GlcN6P” value in the data set with glucosamine-6-phosphate [6] turned out to be 0.000103 ± 1.3e-05 s⁻¹.
Regarding A52U C67G, in the data set with glucosamine-6-phosphate [1], the kcat came out at 0.000281 ± 3.9e-05 s⁻¹. In addition, the KM in the data set with glucosamine-6-phosphate [2] was 2620 ± 740 µM. Besides, the “self-cleavage kobs at 640 uM GlcN6P” value with glucosamine-6-phosphate [4] was 6.34e-05 ± 7.8e-06 s⁻¹. For the same variant, in the data set with glucosamine-6-phosphate [5], the “self-cleavage kobs at 2500 uM GlcN6P” value worked out at 0.000118 ± 1.4e-05 s⁻¹. Besides, in the data set with glucosamine-6-phosphate [6], the “self-cleavage kobs at 10000 uM GlcN6P” value is 0.000235 ± 2e-05 s⁻¹.
Take A39G G41C: in the data set with glucosamine-6-phosphate [1], the kcat came to 4.55e-05 ± 7.4e-06 s⁻¹. Also, the “self-cleavage kobs at 40 uM GlcN6P” value in the data set with glucosamine-6-phosphate [7] is < 1e-05 s⁻¹. For the same variant, the “self-cleavage kobs at 2500 uM GlcN6P” value with glucosamine-6-phosphate [5] amounted to 5.57e-05 ± 1.5e-05 s⁻¹. Besides, the “self-cleavage kobs at 10000 uM GlcN6P” value in the data set with glucosamine-6-phosphate [6] worked out at 3.84e-05 ± 1.2e-05 s⁻¹.
